Patent US20230406951A1 (Pfizer, published 2023)
Values belong to the binder of their own block, whether it stands above or below them.

Tests used:
human TNFR2 [1] = biological target: T1, human TNFR2 (human, UniProt P20333 23-461); experiment: binding to human TNFR2 CHO cells, IgG format; IgG format, light chain Q89L
T1 construct: expressed on the surface of CHO cells; also called HuTNFR2; TNFRSF1B
T1 sequence: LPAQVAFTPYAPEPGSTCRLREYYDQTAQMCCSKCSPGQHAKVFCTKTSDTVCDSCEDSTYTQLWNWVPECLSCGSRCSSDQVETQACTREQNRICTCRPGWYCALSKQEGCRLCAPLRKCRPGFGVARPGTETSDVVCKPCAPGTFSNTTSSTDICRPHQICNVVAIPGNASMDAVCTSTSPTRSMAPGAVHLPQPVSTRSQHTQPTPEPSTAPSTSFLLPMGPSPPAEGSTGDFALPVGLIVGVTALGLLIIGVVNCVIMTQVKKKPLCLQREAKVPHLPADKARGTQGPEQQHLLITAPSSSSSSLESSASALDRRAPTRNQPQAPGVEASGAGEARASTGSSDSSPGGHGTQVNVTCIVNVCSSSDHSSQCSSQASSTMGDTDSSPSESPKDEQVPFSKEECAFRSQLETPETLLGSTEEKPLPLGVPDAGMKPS

human TNFR2 [2] = biological target: T1, human TNFR2; experiment: binding to human TNFR2 CHO cells, IgG format; IgG format, light chain Q89L, Y91K
human TNFR2 [3] = biological target: T2, human TNFR2 (human, UniProt P20333 23-461); experiment: binding to CHO cells over-expressing human TNFR2
T2 construct: Human TNFR2 over-expressed on CHO cells, full length on transduced NF-KB-GFP Jurkat cells, or native on human primary T cells; also called Hu TNFR2; TNFRSF1B
T2 sequence: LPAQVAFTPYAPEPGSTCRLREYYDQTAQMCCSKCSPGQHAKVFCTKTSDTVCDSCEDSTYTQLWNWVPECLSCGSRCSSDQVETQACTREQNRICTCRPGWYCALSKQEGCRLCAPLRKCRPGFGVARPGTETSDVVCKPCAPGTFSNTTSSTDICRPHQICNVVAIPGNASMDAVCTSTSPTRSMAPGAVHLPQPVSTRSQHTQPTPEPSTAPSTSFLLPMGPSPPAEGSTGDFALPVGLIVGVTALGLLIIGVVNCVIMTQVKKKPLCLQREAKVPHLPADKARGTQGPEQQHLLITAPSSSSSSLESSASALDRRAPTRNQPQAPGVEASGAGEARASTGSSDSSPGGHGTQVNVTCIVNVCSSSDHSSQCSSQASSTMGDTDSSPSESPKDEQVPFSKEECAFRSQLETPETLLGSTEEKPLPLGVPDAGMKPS

EC50 (human TNFR2 [1]): 0.43 nM
B1: IgG2205 (antibody, V domains shown)
VH: QVQLVQSGAEVKKPGASVKVSCKVSGFSFPSSGVDWVRQAPGQGLEWLGVTWGVGSTHYNQKFQGRVTITKDTSKSTVYMELSSLRSEDTAVYYCASGEWDEGFVYWGQGTLVTVSS
VL: DIQLTQSPSFLSASVGDRVTITCKASQNVGTAVAWYQQKPGKAPKLLIYAASTLQSGVPSRFSGSGSGTEFTLTISSLQPEDFATYYCLQYSSYPLTFGGGTKVEIKR
notes: IgG

EC50 (human TNFR2 [2]): 1.63 nM
B2: IgG 2204 (antibody, V domains shown)
VH: QVQLVQSGAEVKKPGASVKVSCKVSGFSFPSSGVDWVRQAPGQGLEWLGVTWGVGSTHYNQKFQGRVTITKDTSKSTVYMELSSLRSEDTAVYYCASGEWDEGFVYWGQGTLVTVSS
VL: DIQLTQSPSFLSASVGDRVTITCKASQNVGTAVAWYQQKPGKAPKLLIYAASTLQSGVPSRFSGSGSGTEFTLTISSLQPEDFATYYCLQKSSYPLTFGGGTKVEIKR
notes: IgG

EC50 (human TNFR2 [3]): 0.0698 µg/mL
B3: clone 825 (antibody, V domains shown)
VH: QVQLKESGPGLVAPSQSLSITCTVSGFSFPSSGVDWVRQSPGKGLEWLGVTWGVGSTHYNSALKSRLSISKDNSKSQVFLKMNSLQTEDTAIYYCASGEWDEGFVYWGQGTLVTVSA
VL: DIVMTQSQKFMSTTVGDRVSITCKASQNVGTAVAWYQQKPGQSPKLLIYSASNRYTGVPDRFTGSGSGTDFTLTISNMQSEDLADYFCQQYSSYPLTFGGGTKLEIK
notes: human IgG1 (L234A, L235A, G237A, EU), kappa
